Reference: paper doi:10.1101/2020.10.05.326918 (bioRxiv, 2020)

B1: MED29 (natural protein, Mus musculus (endogenous in CH12 cells), UniProt Q9DB91 1-199, looked up)
chain: MAAPQPQAAAVSSASGVSGPGSAGGPGPQQQPQPTQLVGSAQSGLLQQQQQDFDPVQRYKMLIPQLKESLQTLMKVAAQNLIQNTNIDNGQKSSDAPLQRFDKCLEEFYALCDQLELCLRLAHECLSQSCDSAKHSPTLVPTATKPDAVQPDSLPYPQYLAVIKAQITCAKDIHTALLDCANKVTGKTTAPSTGPGGSL
B2: MED17 (natural protein, Mus musculus (endogenous in CH12 cells), UniProt Q8VCD5 1-649, looked up)
chain: MSGVRAVRISIESACEKQVQEVGLDGTETYLQPLSMSQNLARLAQRIDFSQGSGSEEEEAAGPDGDAPDWGGAGADQDDEEGLVKFQPSLWPWDSVRNNLRSALTEMCVLYDVLSIVRDKKFMTLDPVSQDALPPKQSPQTLQLISKKKSLAGAAQILLKGAERLTKSVAENQENKLQRDFNSELLRLRQHWKLRKVGDKILGDLSYRSAGSLFPHHGTFEVIKNTDIDLDKKIPEDYCPLDVQIPSDLEGSAYIKVSIQKQAPDIGDLGTVNLFKRPLPKSKPGSPHWQTKLEAAQNVLLCKEIFAQLSREAVQIKSQIPHIVVKNQIISQPFPSLQLSISLCHSSDDKKSQKCAAEKPGQEDHLYVLEHNLHLLIREFHKQTLSSIVMPHPASAPFGHKRMRLSGPQAFDKNEINSIQSTEGLLEKIIKQAKHIFLRSRTAATIDSLASRIEDPQIQAHWSNINDVYESSVKVLITSQGYEQICKSIQLQLNIGVEQVRVVHRDGRVIMLSHQEQELQDFLLSQMSQHQVHAVQQLAKVMGWQVLSFSNHVGLGPIESIGNASAITVASPSGDYAISVRNGPESGSKIMVQFPRNQCKDLPKSDVLQDSKWSHLRGPFKEVQWNKMEGRNFVYKMELLMSALSPCLL
B3: MED27 (natural protein, Mus musculus (endogenous in CH12 cells), UniProt Q9DB40 1-311, looked up)
chain: MADVLSVGVNLEAFSQAISAIQALRSSVSRVFDCLKDGMRNKETLEGREKAFIANFQDNLHSVNRDLNELERLSNLVGKPSENHPLHNSGLLSLDPVQDKTPLYSQLLQAYKWSNKLQYHAGLASGLLNQQSLKRSANQMGVSAKRRPKAQPTTLVLPPQYVDDVISRIDRMFPEMSIHLSRPNGTSAMLLVTLGKVLKVIVVMRSLFIDRTIVKGYNESVYTEDGKLDIWSKSSYQVFQKVTDHATTALLHYQLPQMPDVVVRSFMTWLRSYIKLFQAPCQRCGKFLQDGLPPTWRDFRTLEAFHDTCRQ
B4: MED30 (natural protein, Mus musculus (endogenous in CH12 cells), UniProt Q9CQI9 1-178, looked up)
chain: MSTPPLAPTGMASGPFGGPQAQQAAREVNTATLCRIGQETVQDIVYRTMEIFQLLRNMQLPNGVTYHTGTYQDRLTKLQDHLRQLSILFRKLRLVYDKCNENCGGMDPIPVEQLIPYVDEDGSKNDDRAGPPRFASEERREIVEVNKKLKQKNQQLKQIMDQLRNLIWDINAMLAMRN

What was measured:
Assay in all cases: cryo-EM structure
MED27 = biological target: B3
MED14 = MED14 (Mus musculus (endogenous in CH12 cells), UniProt A2ABV5 1-1459)
MED14, sequence (A2ABV5 whole entry): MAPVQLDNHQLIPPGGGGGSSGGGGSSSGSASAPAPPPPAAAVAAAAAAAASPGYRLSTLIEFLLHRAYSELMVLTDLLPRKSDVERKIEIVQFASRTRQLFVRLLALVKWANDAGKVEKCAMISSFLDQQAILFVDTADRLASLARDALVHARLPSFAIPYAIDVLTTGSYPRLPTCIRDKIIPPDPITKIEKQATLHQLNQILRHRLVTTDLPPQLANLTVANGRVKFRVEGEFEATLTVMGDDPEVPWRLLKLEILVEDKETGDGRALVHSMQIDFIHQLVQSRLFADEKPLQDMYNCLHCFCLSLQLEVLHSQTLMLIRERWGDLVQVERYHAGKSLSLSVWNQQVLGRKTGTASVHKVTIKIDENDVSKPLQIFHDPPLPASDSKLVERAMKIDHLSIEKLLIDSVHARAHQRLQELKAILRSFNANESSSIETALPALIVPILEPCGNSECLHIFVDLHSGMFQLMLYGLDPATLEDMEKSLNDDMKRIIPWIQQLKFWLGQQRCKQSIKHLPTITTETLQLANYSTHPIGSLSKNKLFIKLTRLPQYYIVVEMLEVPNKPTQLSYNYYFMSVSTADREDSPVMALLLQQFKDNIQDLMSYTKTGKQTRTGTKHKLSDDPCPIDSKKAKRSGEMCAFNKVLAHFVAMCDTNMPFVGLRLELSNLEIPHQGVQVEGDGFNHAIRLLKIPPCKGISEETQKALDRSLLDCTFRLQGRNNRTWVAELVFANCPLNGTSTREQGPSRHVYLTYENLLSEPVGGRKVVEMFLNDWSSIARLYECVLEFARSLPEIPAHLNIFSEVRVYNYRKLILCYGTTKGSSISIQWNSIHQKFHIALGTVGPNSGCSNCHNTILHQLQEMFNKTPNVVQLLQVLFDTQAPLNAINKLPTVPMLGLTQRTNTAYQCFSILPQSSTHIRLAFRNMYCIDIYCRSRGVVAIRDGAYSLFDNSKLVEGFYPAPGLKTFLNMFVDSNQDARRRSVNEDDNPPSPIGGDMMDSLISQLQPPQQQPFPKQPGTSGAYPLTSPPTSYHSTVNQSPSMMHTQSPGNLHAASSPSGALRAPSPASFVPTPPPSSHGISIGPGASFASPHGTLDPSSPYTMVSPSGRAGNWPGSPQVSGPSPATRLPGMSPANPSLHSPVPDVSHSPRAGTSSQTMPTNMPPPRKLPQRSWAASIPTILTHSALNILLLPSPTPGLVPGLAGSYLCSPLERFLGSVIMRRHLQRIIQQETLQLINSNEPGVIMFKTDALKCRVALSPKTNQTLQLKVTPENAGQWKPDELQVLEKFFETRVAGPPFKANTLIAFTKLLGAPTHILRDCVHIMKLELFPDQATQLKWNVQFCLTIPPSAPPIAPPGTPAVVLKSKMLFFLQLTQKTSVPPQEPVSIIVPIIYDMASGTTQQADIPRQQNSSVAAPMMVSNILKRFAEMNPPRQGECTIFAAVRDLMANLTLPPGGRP

MED15 = biological target: T1, MED15 (Mus musculus (endogenous in CH12 cells), UniProt Q924H2 1-789)
T1 sequence (looked up): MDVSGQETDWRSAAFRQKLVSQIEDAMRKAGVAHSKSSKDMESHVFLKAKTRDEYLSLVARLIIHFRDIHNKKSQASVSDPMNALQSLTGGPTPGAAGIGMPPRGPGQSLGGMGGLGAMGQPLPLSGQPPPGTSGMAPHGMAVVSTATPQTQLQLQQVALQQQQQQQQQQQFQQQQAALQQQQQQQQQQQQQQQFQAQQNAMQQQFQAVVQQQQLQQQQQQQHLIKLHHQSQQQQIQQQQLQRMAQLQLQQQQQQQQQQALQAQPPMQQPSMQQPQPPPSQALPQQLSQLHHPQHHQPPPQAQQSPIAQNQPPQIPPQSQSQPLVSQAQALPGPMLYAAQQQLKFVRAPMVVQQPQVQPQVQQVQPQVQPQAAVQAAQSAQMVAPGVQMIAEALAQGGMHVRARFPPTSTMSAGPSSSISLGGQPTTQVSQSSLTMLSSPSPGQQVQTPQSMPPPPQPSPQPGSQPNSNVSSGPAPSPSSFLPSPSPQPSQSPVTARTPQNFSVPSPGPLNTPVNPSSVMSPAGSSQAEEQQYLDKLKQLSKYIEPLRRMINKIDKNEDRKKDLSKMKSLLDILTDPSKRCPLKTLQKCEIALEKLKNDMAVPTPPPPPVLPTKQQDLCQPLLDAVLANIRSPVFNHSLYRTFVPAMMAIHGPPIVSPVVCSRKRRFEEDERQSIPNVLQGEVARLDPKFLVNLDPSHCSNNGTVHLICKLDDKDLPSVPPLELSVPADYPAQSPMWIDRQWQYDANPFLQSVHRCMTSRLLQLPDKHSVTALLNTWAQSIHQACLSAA

MED16 = biological target: T2, MED16 (Mus musculus (endogenous in CH12 cells), UniProt Q6PGF3 1-828)
T2 sequence (looked up): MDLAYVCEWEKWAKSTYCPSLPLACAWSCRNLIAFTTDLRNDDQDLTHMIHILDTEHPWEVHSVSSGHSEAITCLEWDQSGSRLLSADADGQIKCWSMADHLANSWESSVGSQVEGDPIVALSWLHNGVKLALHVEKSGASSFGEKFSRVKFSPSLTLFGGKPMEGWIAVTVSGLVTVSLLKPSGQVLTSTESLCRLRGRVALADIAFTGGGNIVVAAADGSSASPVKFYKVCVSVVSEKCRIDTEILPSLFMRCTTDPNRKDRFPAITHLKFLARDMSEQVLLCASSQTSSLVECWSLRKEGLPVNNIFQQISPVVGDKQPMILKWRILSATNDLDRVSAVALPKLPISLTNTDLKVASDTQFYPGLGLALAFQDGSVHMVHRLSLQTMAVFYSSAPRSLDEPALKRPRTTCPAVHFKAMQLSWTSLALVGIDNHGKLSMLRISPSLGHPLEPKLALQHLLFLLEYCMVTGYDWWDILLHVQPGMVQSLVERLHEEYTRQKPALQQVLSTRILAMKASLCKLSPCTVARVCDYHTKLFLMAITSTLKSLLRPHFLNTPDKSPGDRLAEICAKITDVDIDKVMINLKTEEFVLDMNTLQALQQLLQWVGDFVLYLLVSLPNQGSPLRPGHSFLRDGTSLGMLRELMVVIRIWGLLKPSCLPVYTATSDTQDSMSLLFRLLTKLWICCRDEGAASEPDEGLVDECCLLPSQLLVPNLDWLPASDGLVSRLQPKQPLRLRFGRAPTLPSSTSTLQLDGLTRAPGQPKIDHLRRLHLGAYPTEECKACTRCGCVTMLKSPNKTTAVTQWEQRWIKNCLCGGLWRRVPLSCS

MED17 = biological target: B2
MED22 = biological target: T3, MED22 (Mus musculus (endogenous in CH12 cells), UniProt Q62276 1-200)
T3 sequence (looked up): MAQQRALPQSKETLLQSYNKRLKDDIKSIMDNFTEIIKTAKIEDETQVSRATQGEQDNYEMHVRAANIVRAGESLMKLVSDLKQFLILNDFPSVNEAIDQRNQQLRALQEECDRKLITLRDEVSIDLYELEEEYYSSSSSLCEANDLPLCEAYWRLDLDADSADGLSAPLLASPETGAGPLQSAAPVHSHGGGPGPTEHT

MED29 = biological target: B1
MED30 = biological target: B4

Measured: binding result

B1
binds: MED27 | MED14 | MED15 | MED16

B2
binds: MED14 | MED15

B3
binds: MED14 | MED15 | MED16 | MED17

B4
binds: MED22 | MED27 | MED29

B5: MED28 (natural protein, Mus musculus (endogenous in CH12 cells), UniProt Q920D3 1-178, looked up)
chain: MAASLGGMFTGQPPGPPPPPPGLPGQASLLQAAPGAPRPSNSTLVDELESSFEACFASLVSQDYVNGTDQEEIRTGVDQCIQKFLDIARQTECFFLQKRLQLSVQKPDQVIKEDVSELRSELQRKDALVQKHLTKLRHWQQVLEDINVQHKKPADMPQGSLAFLEQASANIPAPLKQT
binds: MED22 | MED27 | MED29 | MED30
